Target: EGF receptor (UniProt P00533 25-645)
Test: MST

B1: EGFL7 (natural protein, UniProt Q9UHF1 24-273, looked up)
chain: YRPGRRVCAVRAHGDPVSESFVQRVYQPFLTTCDGHRACSTYRTIYRTAYRRSPGLAPARPRYACCPGWKRTSGLPGACGAAICQPPCRNGGSCVQPGRCRCPAGWRGDTCQSDVDECSARRGGCPQRCVNTAGSYWCQCWEGHSLSADGTLCVPKGGPPRVAPNPTGVDSAMKEEVQRLQSRVDLLEEKLQLVLAPLHSLASQALEHGLPDPGSLLVHSFQQLGRIDSLSEQISFLEEQLGSCSCKKDS
Kd: 384 ± 76.5 nM
